Measurements published in the supplement of paper PMC9170038.

Tested on: MS2 coat protein
Assay: apparent KD of MS2 coat protein; designed switch direction (-1 OFF switch, 1 ON switch): -1; higher = weaker reporter binding
Method in brief: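 Transcription of designed RNA switches on Illumina chips was done by stalled E. coli RNA polymerase. SNAP-549-labelled MS2 coat protein was then titrated in doubling steps from 0.7 or 1.5 nM to 3 µM, with steps of 0.8–1.5 h at the lowest and 10–20 min at the highest concentration. The per-design median over clusters of curve-fitted normalised fluorescence is reported as apparent KD.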

[1] = input ligand: microRNA oligo, concentration not stated
[2] = Eterna round: R95, input ligand: FMN 200 uM
[3] = Eterna round: R95, input ligand: microRNA oligo, concentration not stated
[4] = Eterna round: R95, input ligand: none

Sequence | apparent KD of MS2 coat protein (input ligand: FMN 200 uM) | apparent KD of MS2 coat protein [1] | apparent KD of MS2 coat protein (input ligand: none) | apparent KD of MS2 coat protein [2] | apparent KD of MS2 coat protein [3] | apparent KD of MS2 coat protein [4]
AUGGGUCCUCUCGGAGCGACAUGAGGAUCACCCAUGUGUGUUGAGGAUAUCCACUGCUAAGGACGGGAGAAGGCAGUGUACUGU [Ex NG3 #85] (Eterna round: R96, puzzle: Exclusion NG 3) | 29.8 nM | 23.5 nM | 32.9 nM | – | – | –
UAUUAACAAGCUAGAUCCUACAUGAGGAUCACCCAUGUGCUCGUCUUAUAAGGUACUGUGACGAAAGUCACGGUACC [Sensor 3, v1 - 76] (puzzle: Sensor v3, turn-off variant 1) | – | – | – | 265 nM | 42.4 nM | 243 nM
UGCUAGUCAGGAUAUACGAACAUGUCAAAAGACGUGAAGGGACAUGAGGAUCACCCAUGUAGAAGGGACUAGCC [salish99_ex2_r3_008] (puzzle: Exclusion 2) | – | – | – | – | 25.5 nM | –
GUUUGACAUGAGGAUCACCCAUGUAAGGAUAUACGAGUAGAUACUAGAUAGUUAGUAUGUAGAAGGUACGUGUU [EX1 #64] (Eterna round: R97, puzzle: Exclusion 1) | 34.6 nM | – | 43.5 nM | – | – | –
AAGGGUGCCUUUAGAAAGACAUGAGGAUCACCCAUGUAGACUGAGGAUAUCCACUCCUAAGGACCGGAGAAGGCAGUGUAAUGC [Ex NG3 #62] (Eterna round: R96, puzzle: Exclusion NG 3) | 62.1 nM | 18.6 nM | 31.8 nM | – | – | –
AGUACUAACACGAAAGUGUUAGUACAAUAAGCUUGUGAAACAUGAGGAUCACCCAUGUCCUCCUAAGCUCGUCUUAU [salish99_TOv2_r3_049] (puzzle: Sensor v3, turn-off variant 2) | – | – | – | 45.4 nM | 140 nM | 43.2 nM
AAAACGUGAGGAUAUACUGUGAGAUCUCAAGGUACGUUAAGACAUGAGGAUCACCCAUGUAGAAGGCGCCAAAA [Eternabot (Original) Solution 15] (Eterna round: R97, puzzle: Exclusion 2) | 57.3 nM | – | 30.9 nM | – | – | –
CAGUACUGAGGAUAUACAUGAGGAUCACCCAUGUGUUCCAGCUAGGAUACUAGCAAAUGUAGAAGGCAGUACUG [Mat - Exclusion 3 - Eli Mod - D8] (Eterna round: R97, puzzle: Exclusion 3) | 62.9 nM | – | 227 nM | – | – | –
AGCUAGUGCCGAGGAUAUACAUGAGGAUCACCCAUGUAGGCGUGAGGCUUUGUCUCACGCGAGAUGUAGAAGGCGGCGUUGGCA [JL ENG2 1.52] (Eterna round: R96, puzzle: Exclusion NG 2) | 60.5 nM | 14.1 nM | 21.7 nM | – | – | –
GAAAACGAUGAGGAUAUAUGAUAUCAAAGCAUCAUAGAAGGCAUCACAUGAGGAUCACCCAUGUGAUCUUCUUG [Mat - Exclusion 6 - JL Mod - D31] (Eterna round: R97, puzzle: Exclusion 6) | 164 nM | – | 26.6 nM | – | – | –
AAAACGUCAGGAUAUCCAAUAUAUGACAUGAGGAUCACCCAUGUUUCCACUCGUACCUCCGGAGAAGGGACUAAUA [Ex5 #84] (Eterna round: R97, puzzle: Exclusion 5) | 34.7 nM | – | 38.2 nM | – | – | –
UUUACAAGCUAUUGAUCCCACAUGAGGAUCACCCAUGUUCCUGGCCGUGAGGCUAGGUAAACAAUAGCUCGUCUUAU [Sensor-V1 #41] (Eterna round: R97, puzzle: Sensor, turn-off variant 1) | 98.4 nM | – | 95.1 nM | – | – | –
AAAAAAAGACAAGAGGAGAAUCGUCUUAAAAAUCCUCAGACAUGAGGAUCACCCAUGUAAAAUGAUCGAAAGAUCAA [Mat - Sensor v2 - ver2 - JL mod - D42] (Eterna round: R96, puzzle: Sensor v2, turn-off variant 2) | 39.7 nM | 40 nM | 40.6 nM | – | – | –
GUGGUGACAGGAUAUACAUGAGGAUCACCCAUGUGAGGAGGAGGAGAGAGGUGAAGGAGUAGAAGGGUCAGAGA [JR_Exclu3_Sub025] (puzzle: Exclusion 3) | – | – | – | 102 nM | 91.5 nM | 106 nM
CUUAGUUGGUAAGGAUAUCCUACAUUGUUCUGGCCCGGGCAUGCUACAUGAGGAUCACCCAUGUGGGAGAAGGUGCGUCAUCGC [Design 18] (Eterna round: R96, puzzle: Exclusion NG 2) | 57.4 nM | 45.1 nM | 53.6 nM | – | – | –
ACAAAGCUAGGAUAUGUGGCGGAUAACAUGAGGAUCACCCAUGUGAGCUCACAGAUCCGAGCAGAAGGAGCGAUUA [EX5 A.10] (Eterna round: R97, puzzle: Exclusion 5) | 15.3 nM | – | 14.6 nM | – | – | –
GGCCCUAAGGUCAGAUUCACAAGCUUUUUGCUCGUUUUAACAUGAGGAUCACCCAUGUCUAGUGGAUUUGAUCCUUU [Sensor v3, turn-off variant 2 (MOD of Indiso v.6)] (puzzle: Sensor v3, turn-off variant 2) | – | – | – | 28.6 nM | 25.4 nM | 34.2 nM

Sequence | apparent KD of MS2 coat protein (input ligand: FMN 200 uM) | apparent KD of MS2 coat protein [1] | apparent KD of MS2 coat protein (input ligand: none) | apparent KD of MS2 coat protein [2] | apparent KD of MS2 coat protein [3] | apparent KD of MS2 coat protein [4]
UACAUGAGGAUCACCCAUGUUUUGUCGUGUAUGGUAUUUAUCUAGGAUAUCAAUGUAUUUAUGUAUGAGAAGGAGAAUAUUAAU [JMF's solution 47] (Eterna round: R96, puzzle: Exclusion NG 3) | – | 32.3 nM | – | – | – | –
GGCACACAUGAGGAUCACCCAUGUGAGGAUAUGGUGCGAUCGUCGAUAGACGAUAGCACUAGAAGGCACAUGCC [Mat - Exclusion 1 - Eli Mod - D6] (Eterna round: R97, puzzle: Exclusion 1) | 25.5 nM | – | 17.8 nM | – | – | –
GAGCUGUGAGGAUAUACAUGAGGAUCACCCAUGUUAAGGAAGUCGGGAUUAAUUUGGUGUAGAAGGCGCUUAUU [JR_Ex3_Sub020] (Eterna round: R97, puzzle: Exclusion 3) | 44 nM | – | 42.5 nM | – | – | –
GAUUAUGCGAGCUUUAGGGACAUGAGGAUCACCCAUGUUCGUCUUAUUAAUCUAGGUGCACUAACAUACCUAAAUCU [JMF 32] (puzzle: Sensor v3, turn-off variant 1) | – | – | – | 21.9 nM | 39.4 nM | 21.7 nM
AGUACUAACACGAGAGUGUUAGUACUAUAAGCUUGUGUUACAUGAGGAUCACCCAUGUCCUCAUAGGCUCGUCUUAG [Mat - Sensor v3 - Turn-off var 2 - D83] (puzzle: Sensor v3, turn-off variant 2) | – | – | – | 80.4 nM | 42.7 nM | 87.3 nM
UGUUGUCGCGUAGGAUAUGCAUGAGGAUCACCCAUGCAAUUAGAGUUAACAUGAGGAUCACCCAUGUAGAAGGACGGGACAACU [pwkr exNG2 2xF5 1xFMN.6] (Eterna round: R96, puzzle: Exclusion NG 2) | 89.2 nM | 34.6 nM | 54.1 nM | – | – | –
UGAUUGUUUACCAGGUUAUACAUGAGGAUCACCCAUGUAGAUCCUACGUGCGCGUUGUACCGCUCGUCUUAUUCCCA [Sensor-V1 #78] (Eterna round: R97, puzzle: Sensor, turn-off variant 1) | 18.3 nM | – | 18.9 nM | – | – | –
UUUUUCAGGCCAGAUCCUCACAUGAGGAUCACCCAUGUGCUCGUCUGUUUUCGCUCUUUCUUUUUUUUGGUUGUGCU [Level Boss var2-18] (puzzle: Sensor v3, turn-off variant 1) | – | – | – | 174 nM | 31.2 nM | 259 nM
CUUUCGUGAGGAUAUCAGUAGUAAAAUAAUAAAAUUACUACUGAGAAGGCACAUGAGGAUCACCCAUGUUCCUC [salish99_ex3_r3_099] (puzzle: Exclusion 4) | – | – | – | – | 24.9 nM | –
CUCAUGCCUGAGGAUAUGCUGUACAAAAGUACUGCAGAAGGCGGGACAUGAGGAUCACCCAUGUGGCGAAAGCC [Omei Ex G8] (Eterna round: R97, puzzle: Exclusion 6) | 78.7 nM | – | 519 nM | – | – | –
AAACAAACGGCAGGAUAUCCUCGUCAACACCACAAGUCCACUCGGACAUGAGGAUCACCCAUGUAGGAGAAGGGUCAGAAAUAC [ExNG2 4th] (Eterna round: R96, puzzle: Exclusion NG 2) | 37.2 nM | 24.6 nM | 37.1 nM | – | – | –
GUAAAGGUAGGAUAUACGAAGAAAAAGGGUAGAAUAAUAACACAUGAGGAUCACCCAUGUAGAAGGACCAAAGG [Mat - Exclusion 2 - Mod of my Tesla design - D8] (puzzle: Exclusion 2) | – | – | – | 49.8 nM | 26.4 nM | 23.8 nM
GACUAGUGAGGAUAUAUUUGCAGUGUACCUCGGGUGAUCGCACUUGAGGAUCACCCAAGUAGAAGGCGCGAGGG [EX2 #25] (Eterna round: R97, puzzle: Exclusion 2) | 47.7 nM | – | 355 nM | – | – | –
ACAGUGUUAGGAUAUGUGUGAGUUAGUCUCGACUAGUCGAUGCAGAAGGAACAUGAGGAUCACCCAUGUAGAUC [EX4 #80] (Eterna round: R97, puzzle: Exclusion 4) | 136 nM | – | 64 nM | – | – | –
GUAGAGUCAGGAUAUACGAAUAGAUCGAUAGAUCAAUCCAUACAUGAGGAUCACCCAUGUAGAAGGGACUCUAC [Mat - Exclusion 2 - Eli Mod - D15] (Eterna round: R97, puzzle: Exclusion 2) | 26.2 nM | – | 18.8 nM | – | – | –
UUUUGUUUUUUAUUUUUUAACAUGAGGAUCACCCAUGUAACGAGCAGAUCUUCAUGCAAGCUUUUUGCUCGUCUUAU [Sensor v3 - Turn-off variant 1 - 42] (puzzle: Sensor v3, turn-off variant 1) | – | – | – | 42.2 nM | 16.1 nM | 60.6 nM
